Measurements as given in IntAct's records for PubMed 25910212.

B1: Emerin (Homo sapiens), P50402 (parent)
chain: MDNYADLSDTELTTLLRRYNIPHGPVVGSTRRLYEKKIFEYETQRRRLSPPSSSAASSYSFSDLNSTRGDADMYDLPKKEDALLYQSKGYNDDYYEESYFTTRTYGEPESAGPSRAVRQSVTSFPDADAFHHQVHDDDLLSSSEEECKDRERPMYGRDSAYQSITHYRPVSASRSSLDLSYYPTSSSTSFMSSSSSSSSWLTRRAIRPENRAPGAGLGQDRQVPLWGQLLLFLVFVIVLFFIYHFMQAEEGNPF
B2: ATP synthase mitochondrial F1 complex assembly factor 2 (Homo sapiens), Q8N5M1 (parent)
chain: MWRSCLRLRDGGRRLLNRPAGGPSASMSPGPTIPSPARAYAPPTERKRFYQNVSITQGEGGFEINLDHRKLKTPQAKLFTVPSEALAIAVATEWDSQQDTIKYYTMHLTTLCNTSLDNPTQRNKDQLIRAAVKFLDTDTICYRVEEPETLVELQRNEWDPIIEWAEKRYGVEISSSTSIMGPSIPAKTREVLVSHLASYNTWALQGIEFVAAQLKSMVLTLGLIDLRLTVEQAVLLSRLEEEYQIQKWGNIEWAHDYELQELRARTAAGTLFIHLCSESTTVKHKLLKE
partner: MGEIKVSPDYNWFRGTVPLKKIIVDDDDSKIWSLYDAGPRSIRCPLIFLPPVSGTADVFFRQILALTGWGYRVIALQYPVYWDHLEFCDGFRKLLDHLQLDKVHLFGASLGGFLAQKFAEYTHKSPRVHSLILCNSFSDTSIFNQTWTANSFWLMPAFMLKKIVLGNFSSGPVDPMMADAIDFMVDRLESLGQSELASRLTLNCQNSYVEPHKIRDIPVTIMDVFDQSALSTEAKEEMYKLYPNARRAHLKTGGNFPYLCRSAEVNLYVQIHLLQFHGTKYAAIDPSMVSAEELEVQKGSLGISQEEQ
B3: U4/U6 small nuclear ribonucleoprotein Prp31 (Homo sapiens), Q8WWY3 (parent)
chain: MSLADELLADLEEAAEEEEGGSYGEEEEEPAIEDVQEETQLDLSGDSVKTIAKLWDSKMFAEIMMKIEEYISKQAKASEVMGPVEAAPEYRVIVDANNLTVEIENELNIIHKFIRDKYSKRFPELESLVPNALDYIRTVKELGNSLDKCKNNENLQQILTNATIMVVSVTASTTQGQQLSEEELERLEEACDMALELNASKHRIYEYVESRMSFIAPNLSIIIGASTAAKIMGVAGGLTNLSKMPACNIMLLGAQRKTLSGFSSTSVLPHTGYIYHSDIVQSLPPDLRRKAARLVAAKCTLAARVDSFHESTEGKVGYELKDEIERKFDKWQEPPPVKQVKPLPAPLDGQRKKRGGRRYRKMKERLGLTEIRKQANRMSFGEIEEDAYQEDLGFSLGHLGKSGSGRVRQTQVNEATKARISKTLQRTLQKQSVVYGGKSTIRDRSSGTASSVAFTPLQGLEIVNPQAAEKKVAEANQKYFSSMAEFLKVKGEKSGLMST
partner: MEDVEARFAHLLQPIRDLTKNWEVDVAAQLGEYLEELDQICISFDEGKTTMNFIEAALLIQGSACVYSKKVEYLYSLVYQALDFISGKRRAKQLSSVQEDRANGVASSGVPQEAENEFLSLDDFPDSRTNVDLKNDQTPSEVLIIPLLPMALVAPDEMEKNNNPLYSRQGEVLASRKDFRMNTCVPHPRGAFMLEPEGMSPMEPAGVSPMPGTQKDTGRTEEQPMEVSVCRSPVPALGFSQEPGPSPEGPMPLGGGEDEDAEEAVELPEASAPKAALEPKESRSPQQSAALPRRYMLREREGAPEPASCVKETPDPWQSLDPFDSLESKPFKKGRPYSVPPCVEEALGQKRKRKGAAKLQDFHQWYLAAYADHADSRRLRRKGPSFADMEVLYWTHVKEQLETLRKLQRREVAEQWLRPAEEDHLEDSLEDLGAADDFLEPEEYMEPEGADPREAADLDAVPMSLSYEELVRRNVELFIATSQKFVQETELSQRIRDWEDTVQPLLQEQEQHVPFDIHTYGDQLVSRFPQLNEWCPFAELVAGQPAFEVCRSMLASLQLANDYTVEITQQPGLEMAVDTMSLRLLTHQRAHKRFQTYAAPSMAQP
B4: EF-hand domain-containing protein 1 (Homo sapiens), Q5JVL4 (parent)
chain: MVSNPVHGLPFLPGTSFKDSTKTAFHRSQTLSYRNGYAIVRRPTVGIGGDRLQFNQLSQAELDELASKAPVLTYGQPKQAPPADFIPAHVAFDKKVLKFDAYFQEDVPMSTEEQYRIRQVNIYYYLEDDSMSVIEPVVENSGILQGKLIKRQRLAKNDRGDHYHWKDLNRGINITIYGKTFRVVDCDQFTQVFLESQGIELNPPEKMALDPYTELRKQPLRKYVTPSDFDQLKQFLTFDKQVLRFYAIWDDTDSMYGECRTYIIHYYLMDDTVEIREVHERNDGRDPFPLLMNRQRVPKVLVENAKNFPQCVLEISDQEVLEWYTAKDFIVGKSLTILGRTFFIYDCDPFTRRYYKEKFGITDLPRIDVSKREPPPVKQELPPYNGFGLVEDSAQNCFALIPKAPKKDVIKMLVNDNKVLRYLAVLESPIPEDKDRRFVFSYFLATDMISIFEPPVRNSGIIGGKYLGRTKVVKPYSTVDNPVYYGPSDFFIGAVIEVFGHRFIILDTDEYVLKYMESNAAQYSPEALASIQNHVRKREAPAPEAESKQTEKDPGVQELEALIDTIQKQLKDHSCKDNIREAFQIYDKEASGYVDRDMFFKICESLNVPVDDSLVKELIRMCSHGEGKINYYNFVRAFSN
partner: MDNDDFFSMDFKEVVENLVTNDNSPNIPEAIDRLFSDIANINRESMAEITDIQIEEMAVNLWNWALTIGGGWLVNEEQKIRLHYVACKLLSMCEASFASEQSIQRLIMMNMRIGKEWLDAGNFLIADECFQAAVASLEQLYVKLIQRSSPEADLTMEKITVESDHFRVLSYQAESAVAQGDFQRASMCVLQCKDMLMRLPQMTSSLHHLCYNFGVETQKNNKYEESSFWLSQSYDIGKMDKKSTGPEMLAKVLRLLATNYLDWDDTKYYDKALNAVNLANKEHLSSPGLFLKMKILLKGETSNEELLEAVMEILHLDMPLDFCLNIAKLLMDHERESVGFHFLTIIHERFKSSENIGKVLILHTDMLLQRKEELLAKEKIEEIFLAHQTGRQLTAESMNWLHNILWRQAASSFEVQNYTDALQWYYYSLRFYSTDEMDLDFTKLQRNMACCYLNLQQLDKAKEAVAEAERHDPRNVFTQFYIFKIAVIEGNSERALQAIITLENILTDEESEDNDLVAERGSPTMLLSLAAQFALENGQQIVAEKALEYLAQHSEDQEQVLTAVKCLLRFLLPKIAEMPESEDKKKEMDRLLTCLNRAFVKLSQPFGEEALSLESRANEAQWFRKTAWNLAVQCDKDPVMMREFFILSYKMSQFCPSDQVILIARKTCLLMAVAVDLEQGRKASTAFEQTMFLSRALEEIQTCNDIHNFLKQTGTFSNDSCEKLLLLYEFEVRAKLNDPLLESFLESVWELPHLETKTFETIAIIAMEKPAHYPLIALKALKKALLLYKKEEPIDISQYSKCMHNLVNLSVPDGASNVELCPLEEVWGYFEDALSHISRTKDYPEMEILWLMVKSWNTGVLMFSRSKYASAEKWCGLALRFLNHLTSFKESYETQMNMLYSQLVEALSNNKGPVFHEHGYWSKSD
B5: EF-hand domain-containing protein 1 (Homo sapiens), Q5JVL4 (parent)
chain: B4 chain
partner: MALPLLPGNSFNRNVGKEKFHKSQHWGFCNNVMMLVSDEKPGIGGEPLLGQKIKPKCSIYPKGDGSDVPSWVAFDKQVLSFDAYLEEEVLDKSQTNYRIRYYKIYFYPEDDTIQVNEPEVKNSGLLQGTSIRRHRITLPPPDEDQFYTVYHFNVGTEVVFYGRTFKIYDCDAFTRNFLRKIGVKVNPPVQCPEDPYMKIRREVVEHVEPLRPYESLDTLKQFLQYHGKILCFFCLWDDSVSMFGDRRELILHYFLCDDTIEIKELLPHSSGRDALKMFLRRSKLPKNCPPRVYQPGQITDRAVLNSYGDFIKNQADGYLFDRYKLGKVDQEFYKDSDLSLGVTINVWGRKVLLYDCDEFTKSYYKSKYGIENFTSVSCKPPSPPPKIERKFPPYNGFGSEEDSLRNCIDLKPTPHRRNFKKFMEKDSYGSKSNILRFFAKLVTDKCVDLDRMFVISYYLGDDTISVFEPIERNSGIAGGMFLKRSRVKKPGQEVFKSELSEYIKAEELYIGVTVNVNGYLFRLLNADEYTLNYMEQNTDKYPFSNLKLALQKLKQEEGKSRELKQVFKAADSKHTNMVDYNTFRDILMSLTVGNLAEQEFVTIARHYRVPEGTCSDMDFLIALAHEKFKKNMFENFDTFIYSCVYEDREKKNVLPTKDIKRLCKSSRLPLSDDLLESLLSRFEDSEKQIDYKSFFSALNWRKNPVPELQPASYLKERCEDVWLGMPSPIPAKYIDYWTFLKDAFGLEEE

Variants of: B1
Details: with vapb_human VAPB

| effect of a mutation on the interaction | Variant |
| --- | --- |
| with no effect | P183T |
| with no effect | D72V |

Variants of: B1
Details: with tri42_human TRIM42, Q8IWZ5
Sequence of tri42_human TRIM42, Q8IWZ5 (Q8IWZ5 whole entry): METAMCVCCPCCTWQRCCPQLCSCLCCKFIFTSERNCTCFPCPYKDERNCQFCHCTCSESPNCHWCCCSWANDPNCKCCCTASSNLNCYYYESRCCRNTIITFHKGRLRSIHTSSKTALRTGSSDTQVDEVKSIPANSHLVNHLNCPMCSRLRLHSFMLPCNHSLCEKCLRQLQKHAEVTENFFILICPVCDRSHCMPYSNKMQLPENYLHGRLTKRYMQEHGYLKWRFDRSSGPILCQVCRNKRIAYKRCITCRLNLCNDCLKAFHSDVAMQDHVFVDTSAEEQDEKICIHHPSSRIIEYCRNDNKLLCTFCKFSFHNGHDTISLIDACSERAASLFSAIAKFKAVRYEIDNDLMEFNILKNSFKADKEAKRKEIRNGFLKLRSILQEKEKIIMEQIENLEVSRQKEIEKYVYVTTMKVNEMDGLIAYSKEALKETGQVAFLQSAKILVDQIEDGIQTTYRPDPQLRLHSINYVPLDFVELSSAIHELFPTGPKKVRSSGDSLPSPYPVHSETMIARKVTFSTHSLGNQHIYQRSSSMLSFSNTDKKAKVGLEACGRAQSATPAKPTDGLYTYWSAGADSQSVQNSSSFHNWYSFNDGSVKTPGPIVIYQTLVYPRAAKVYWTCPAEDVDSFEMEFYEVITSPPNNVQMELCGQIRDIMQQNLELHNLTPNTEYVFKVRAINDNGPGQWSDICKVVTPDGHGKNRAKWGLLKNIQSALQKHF

| effect of a mutation on the interaction | Variant |
| --- | --- |
| with no effect | P183T |
| with no effect | D72V |

Variants of: B1
Details: with stx4_human STX4, Q12846
Sequence of stx4_human STX4, Q12846 (Q12846 whole entry): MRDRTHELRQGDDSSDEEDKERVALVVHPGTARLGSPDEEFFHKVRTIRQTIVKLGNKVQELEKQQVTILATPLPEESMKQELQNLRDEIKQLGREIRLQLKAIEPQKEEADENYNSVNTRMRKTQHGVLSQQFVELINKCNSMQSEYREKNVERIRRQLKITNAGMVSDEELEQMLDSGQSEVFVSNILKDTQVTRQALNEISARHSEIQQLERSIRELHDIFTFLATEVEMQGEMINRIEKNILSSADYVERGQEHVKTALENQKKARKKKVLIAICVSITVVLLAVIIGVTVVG

| effect of a mutation on the interaction | Variant |
| --- | --- |
| with no effect | P183T |
| with no effect | D72V |

Variants of: B1
Details: with meox2_human MEOX2, P50222
Sequence of meox2_human MEOX2, P50222 (P50222 whole entry): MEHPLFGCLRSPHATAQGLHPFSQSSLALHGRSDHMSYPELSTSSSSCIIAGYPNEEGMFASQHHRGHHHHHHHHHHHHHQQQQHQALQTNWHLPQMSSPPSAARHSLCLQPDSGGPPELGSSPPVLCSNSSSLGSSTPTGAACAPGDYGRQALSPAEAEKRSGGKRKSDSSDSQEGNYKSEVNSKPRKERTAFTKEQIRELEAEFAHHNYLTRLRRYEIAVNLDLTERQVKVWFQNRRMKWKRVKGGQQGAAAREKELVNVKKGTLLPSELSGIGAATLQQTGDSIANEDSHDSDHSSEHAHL

| effect of a mutation on the interaction | Variant |
| --- | --- |
| with no effect | P183T |
| with no effect | D72V |

Variants of: B1
Details: with ccd33_human CCDC33, Q8N5R6
Sequence of ccd33_human CCDC33, Q8N5R6 (Q8N5R6 whole entry): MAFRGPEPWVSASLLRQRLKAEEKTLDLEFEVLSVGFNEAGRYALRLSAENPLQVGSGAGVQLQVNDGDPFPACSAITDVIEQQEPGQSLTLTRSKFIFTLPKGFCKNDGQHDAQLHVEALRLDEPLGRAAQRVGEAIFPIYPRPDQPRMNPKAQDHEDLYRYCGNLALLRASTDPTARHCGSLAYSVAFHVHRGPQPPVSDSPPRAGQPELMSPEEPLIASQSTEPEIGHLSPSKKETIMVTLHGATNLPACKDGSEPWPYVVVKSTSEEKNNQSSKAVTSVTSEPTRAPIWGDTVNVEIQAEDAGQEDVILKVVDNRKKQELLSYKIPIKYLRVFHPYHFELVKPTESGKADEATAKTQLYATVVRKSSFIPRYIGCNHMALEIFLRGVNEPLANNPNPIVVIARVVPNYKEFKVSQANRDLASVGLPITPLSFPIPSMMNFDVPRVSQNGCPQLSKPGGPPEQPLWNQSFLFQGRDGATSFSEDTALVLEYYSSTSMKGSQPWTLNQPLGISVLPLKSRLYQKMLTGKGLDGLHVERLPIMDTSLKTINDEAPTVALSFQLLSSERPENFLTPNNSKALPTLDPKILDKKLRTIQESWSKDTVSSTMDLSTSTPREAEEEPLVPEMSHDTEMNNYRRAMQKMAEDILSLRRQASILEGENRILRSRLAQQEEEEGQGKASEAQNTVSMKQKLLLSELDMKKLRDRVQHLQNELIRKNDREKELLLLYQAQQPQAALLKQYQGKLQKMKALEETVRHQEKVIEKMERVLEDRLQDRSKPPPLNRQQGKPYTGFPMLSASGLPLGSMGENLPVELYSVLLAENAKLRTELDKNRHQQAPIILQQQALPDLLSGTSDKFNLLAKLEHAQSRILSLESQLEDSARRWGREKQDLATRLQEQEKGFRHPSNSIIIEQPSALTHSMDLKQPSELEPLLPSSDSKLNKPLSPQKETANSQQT

| effect of a mutation on the interaction | Variant |
| --- | --- |
| with no effect | P183T |
| with no effect | D72V |

Variants of: B2
Details: with spg21_human SPG21, Q9NZD8

| effect of a mutation on the interaction | Variant |
| --- | --- |
| disrupting interaction strength | W94R |

Variants of: B3
Details: with cndh2_human NCAPH2, Q6IBW4

| effect of a mutation on the interaction | Variant |
| --- | --- |
| with no effect | L107V |

Variants of: B4
Details: with TEX11, Q8IYF3-3

| Variant | effect of a mutation on the interaction |
| --- | --- |
| P77T | with no effect |
| R159W | with no effect |

Continued, values first:

| effect of a mutation on the interaction | Variant |
| --- | --- |
| with no effect | T508R |
| with no effect | M448T |
| disrupting interaction strength | R221H |
| disrupting interaction strength | A394S |

Variants of: B5
Details: with efhc2_human EFHC2, Q5JST6

| effect of a mutation on the interaction | Variant |
| --- | --- |
| with no effect | M448T |
| with no effect | R159W |
| disrupting interaction strength | P77T |
| with no effect | T508R |
